Experimental findings from article PMC2992810 are described below.

Like-named read-outs stand apart in the source and are kept apart here.

Test [1] addresses MC2R-MRAP complex (HA-hMC2R co-expressed with mMRAP on CHO cells) (human | mouse) (UniProt Q01718). Kind of test: radioligand binding.
The target is the same in test [2].
Test [3] has the same target. The source holds these as a separate data set.
The target of test [4] is MC2R-MRAP2 complex (HA-hMC2R co-expressed with mMRAP2 on CHO cells) (human | mouse) (UniProt Q01718).
In test [5] the target is HA-hMC4R (human) (UniProt P32245). Kind of test: radioligand binding.
For test [6] the target is unchanged. Put plainly: radioligand binding. The source holds these as a separate data set.
Test [7] shares this target.
The target is the same in test [8]. Put plainly: radioligand binding. The source holds these as a separate data set.

Sequence of UniProt P32245 (P32245 whole entry): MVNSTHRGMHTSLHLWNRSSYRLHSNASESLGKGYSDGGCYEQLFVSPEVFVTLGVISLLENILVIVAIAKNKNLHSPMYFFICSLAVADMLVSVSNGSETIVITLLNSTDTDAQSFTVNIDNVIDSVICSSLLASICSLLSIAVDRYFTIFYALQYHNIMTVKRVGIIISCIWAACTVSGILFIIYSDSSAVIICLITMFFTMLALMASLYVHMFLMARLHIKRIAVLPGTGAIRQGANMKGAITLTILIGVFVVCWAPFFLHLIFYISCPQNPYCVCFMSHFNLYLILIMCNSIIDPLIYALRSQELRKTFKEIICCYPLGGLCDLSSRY

ACTH(1–39) (peptide): the half-inhibitory concentration (IC50) in test [1] was found to be 5.7 nM. The EC50 of cAMP accumulation (LANCE assay, 20 min) in CHO cells in test [2] was 2.4 nM. For the same substance, the EC50 of phosphorylation of ERK1 and ERK2 in serum-deprived HEK 293 cells (5 min) turned out to be 1.1 nM in test [3] and 68 nM in test [4].

Turning to NDP-α-MSH (peptide), the half-inhibitory concentration (IC50) with HA-hMC4R (human) [5] stood at 0.92 nM; in the test with HA-hMC4R (human) [6], 1.1 nM; with HA-hMC4R (human) [8] it was 0.19 nM. In the test with HA-hMC4R (human) [7], this substance had an EC50 of the CRE-Luc cAMP reporter response in CHO cells containing MC4R alone of 0.11 nM. Further, the EC50 of the CRE-Luc cAMP reporter response in CHO cells containing MC4R and MRAP with HA-hMC4R (human) [7] is 0.27 nM.

For orientation: IC50 means the midpoint of a concentration-inhibition curve. Higher therefore signals weaker potency in that assay.
